Numbering of substitutions follows the chain as printed. Numbers in names are those of the source.
Legend:
[1] = target: T1, recombinant cynomolgus monkey CD39 (cynomolgus monkey, UniProt A0A7N9DGH8 38-478); assay: BLI (Octet), clone 22 captured on AHC biosensor, recombinant cynomolgus monkey CD39 as analyte, 1:1 model
T1 sequence: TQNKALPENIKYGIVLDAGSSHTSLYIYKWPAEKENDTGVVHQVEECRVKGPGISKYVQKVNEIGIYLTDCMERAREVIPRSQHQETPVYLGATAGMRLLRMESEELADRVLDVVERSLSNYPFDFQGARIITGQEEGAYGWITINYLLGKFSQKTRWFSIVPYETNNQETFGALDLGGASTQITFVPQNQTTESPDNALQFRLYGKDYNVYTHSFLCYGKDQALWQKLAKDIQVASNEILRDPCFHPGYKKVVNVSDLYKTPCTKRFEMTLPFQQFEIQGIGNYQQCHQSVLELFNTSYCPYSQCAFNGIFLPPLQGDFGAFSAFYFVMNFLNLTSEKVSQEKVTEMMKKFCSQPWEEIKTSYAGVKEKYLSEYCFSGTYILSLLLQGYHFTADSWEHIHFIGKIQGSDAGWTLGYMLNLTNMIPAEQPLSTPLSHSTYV
Description: (§1) In the first configuration, an Anti-Human Immunoglobulin G (IgG) Fragment Crystallizable (Fc) Capture (AHC) biosensor was used first to capture 1 μg/mL of clone 22 as the ligand onto 8 biosensors and subsequently to measure association (600 s) and dissociation (900 s) of 0 to 5 μg/mL of recombinant CD39 from either human, rat, or cynomolgus monkey as the analyte. A second configuration was required for recombinant mouse CD39 binding analysis, as the positive control antibody was a rat IgG and would not bind to the AHC biosensor. Recombinant mouse CD39 binding to clone 22 was analyzed with this second configuration to achieve a direct comparison with the positive control antibody. […] Subsequently, association (600 s) and dissociation (1200 s) of recombinant mouse CD39 (analyte) was measured at a concentration range of 0 to 5.0 μg/mL for both antibodies. […] Under both configurations, association constants (kₐ) and dissociation constants (kd) were determined and KD was calculated for each antibody where binding of the analyte was observed (clone 22 with recombinant CD39 from both human and cynomolgus monkey and Duha59 positive control antibody with recombinant mouse CD39). Kinetic binding parameters were not determined for interactions where binding was not observed (clone 22 with recombinant CD39 from both mouse and rat).

recombinant human CD39 = target: T2, recombinant human CD39 (human, UniProt P49961 38-478); assay: BLI (Octet), clone 22 captured on AHC biosensor, recombinant human CD39 as analyte, 1:1 model
T2 construct: The clone 1-20 assays used carrier-free human CD39-His lacking transmembrane domains (R&D Systems 4397-EN-010); also called rhCD39
T2 sequence (looked up): T1 sequence with I10V, Y57F, I184V, T193I, V292I, N331K, S354A
Description: as §1

recombinant rat CD39 = target: T3, recombinant rat CD39 (rat, UniProt P97687 38-478, limits assumed); assay: BLI (Octet), clone 22 captured on AHC biosensor, recombinant rat CD39 as analyte
T3 sequence (looked up): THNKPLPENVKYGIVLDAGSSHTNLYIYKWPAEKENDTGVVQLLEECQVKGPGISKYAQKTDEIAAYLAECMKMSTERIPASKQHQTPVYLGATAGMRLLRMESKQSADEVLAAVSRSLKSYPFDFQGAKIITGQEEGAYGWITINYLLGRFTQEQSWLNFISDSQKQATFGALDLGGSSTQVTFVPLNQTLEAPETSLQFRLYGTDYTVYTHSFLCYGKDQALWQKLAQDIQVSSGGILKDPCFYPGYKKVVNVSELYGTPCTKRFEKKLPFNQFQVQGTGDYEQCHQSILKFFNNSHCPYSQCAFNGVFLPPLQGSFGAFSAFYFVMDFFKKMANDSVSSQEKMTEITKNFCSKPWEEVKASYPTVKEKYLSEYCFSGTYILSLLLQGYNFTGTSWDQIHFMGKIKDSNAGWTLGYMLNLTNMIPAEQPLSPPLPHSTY
Description: as §1

recombinant mouse CD39 = target: T4, recombinant mouse CD39 (mouse, UniProt P55772 38-478, limits assumed); assay: BLI (Octet), clone 22 amine-coupled to AR2G biosensor, recombinant mouse CD39 as analyte
T4 sequence (looked up): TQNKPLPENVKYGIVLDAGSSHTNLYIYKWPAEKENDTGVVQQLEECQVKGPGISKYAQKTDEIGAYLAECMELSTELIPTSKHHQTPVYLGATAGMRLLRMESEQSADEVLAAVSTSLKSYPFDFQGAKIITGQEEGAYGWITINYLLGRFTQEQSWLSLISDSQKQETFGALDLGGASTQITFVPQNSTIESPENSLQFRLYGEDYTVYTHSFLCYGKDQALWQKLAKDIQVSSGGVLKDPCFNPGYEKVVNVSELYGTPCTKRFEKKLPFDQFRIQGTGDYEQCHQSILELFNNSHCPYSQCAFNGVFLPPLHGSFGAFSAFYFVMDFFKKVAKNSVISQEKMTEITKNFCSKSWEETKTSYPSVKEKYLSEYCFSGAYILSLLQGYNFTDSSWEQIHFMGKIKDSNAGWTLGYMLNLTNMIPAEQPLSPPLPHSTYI
Description: as §1

B1: clone 22 (antibody, human IgG4 S228P, kappa, V domains shown)
VH: QVQLVQSGAEVKKPGSSVKVSCKASGGTFSSEGISWVRQAPGQGLEWMGSILPIFGTANYAQKFQGRVTITADESTSTAYMELSSLRSEDTAVYYCAREAGYYRYRYFDLWGRGTLVTVSS
VL: EIVMTQSPATLSVSPGERATLSCRASQSVSSNLAWYQQKPGQAPRLLIYGASTRATGIPARFSGSGSGTEFTLTISSLQSEDFAVYYCQQHALWPLTFGGGTKVEIKR
notes: Human IgG4 with the S228P mutation and a human kappa light chain; also called anti-CD39 antibody clone 22; antibody clone number 22
B1 was tested, and the Kd [1] was 0.406 nM, the Kd (recombinant human CD39) was 1.11 nM and the binding result (recombinant rat CD39) was “no binding (tested: 0 to 5 µg/mL recombinant rat CD39)”. B1: no binding (tested: 0 to 5.0 µg/mL recombinant mouse CD39) (recombinant mouse CD39).

Source: patent US20210095041A1 (SURFACE ONCOLOGY, published 2021)
